Measured values as given in patent US20260209311A1, “MODIFIED G PROTEIN COUPLED RECEPTOR AND USE THEREOF” (ALPHELIX BIOTECH CO., LTD., priority 2023, published 2026).

Molecular target: T1, modified GPR75 (GPR75-GFP10-11 modified protein complex) (Homo sapiens, UniProt O95800, A308G/DEL234-307/I309H/INS313[…]/N310Y)
T1 construct: obesity-related receptor GPR75 (1-395); signal peptide (N); made in house; The clamp protein is made in E. coli Rosetta 2 (DE3), as described for GFP-clamp
Experiment: SPR determination of affinity of purified modified GPR75 to CCL5 ligand
Type: binding
Conditions: Biacore 8K, Series S Sensor SA chip, pH 7.4; values only in FIG. 79 C
Description: The purification and identification method of the modified GPR75 fusion protein refers to Example 4. The difference is that during the purification, GFP-clamp-avi-biotin was added rather than GFP-clamp. The molecular sieve chromatography result graph of the modified fusion protein is seen in A of FIG. 79, and the SDS gel electrophoresis result graph of the modified fusion protein is seen in B of FIG. 79.
The purified GPR75 was used for determination of affinity to CCL5 ligand via surface plasmon resonance (SPR). The used instrument was Biacore 8K, and the chip was Series S Sensor SA Chip:SA-2429. Both a protein immobilization buffer and a running buffer contained 20 mM HEPES, 150 mM NaCl, 0.005% LMNG and 0.0005% CHS, pH 7.4. The affinity determination results are seen in C of FIG. 79.

## CCL5: CCL5 ligand of the obesity-related receptor GPR75
  affinity (SPR): close to reported results
